B1: GST-Tanc2 (full-length) (natural protein)
chain: not shown
notes: Tanc2, human, aa 1-1990, subcloned from p3XFlag-Tanc2 (aa 1-1990) into pGEX-6P-1; Kept on the glutathione beads as bait; also called purified Tanc2 protein; pGST-Tanc2 (aa 1-1990); source: E. coli BL-21 (DE3), purified on glutathione sepharose 4B beads
B2: GST-Tanc2-N (aa 1-1358) (domain or fragment)
chain: not shown
notes: Tanc2, human, aa 1-1358, in pGEX-6P-1; also called N-terminal region of purified Tanc2; pGST-Tanc2-N; source: E. coli BL-21 (DE3), purified on glutathione sepharose 4B beads
B3: GST-Tanc2-C (aa 1359-1990) (domain or fragment)
chain: REIQRLLLRVEEECRQMQQPQQPPPPPQPQQQLPEEAEPEPQHEDIYSVQDIFEEEYLEQDVENVSIGLQTEARPSQGLPVIQSPPSSPPHRDSAYISSSPLGSHQVFDFRSSSSVGSPTRQTYQSTSPALSPTHQNSHYRPSPPHTSPAHQGGSYRFSPPPVGGQGKEYPSPPPSPLRRGPQYRASPPAESMSVYRSQSGSPVRYQQETSVSQLPGRPKSPLSKMAQRPYQMPQLPVAVPQQGLRLQPAKAQIVRSNQPSPAVHSSTVIPTGAYGQVAHSMASKYQSSQGDIGVSQSRLVYQGSIGGIVGDGRPVQHVQASLSAGAICQHGGLTKEDLPQRPSSAYRGGVRYSQTPQIGRSQSASYYPVCHSKLDLERSSSQLGSPDVSHLIRRPISVNPNEIKPHPPTPRPLLHSQSVGLRFSPSSNSISSTSNLTPTFRPSSSIQQMEIPLKPAYERSCDELSPVSPTQGGYPSEPTRSRTTPFMGIIDKTARTQQYPHLHQQNRTWAVSSVDTVLSPTSPGNLPQPESFSPPSSISNIAFYNKTNNAQNGHLLEDDYYSPHGMLANGSRGDLLERVSQASSYPDVKVARTLPVAQAYQDNLYRQLSRDSRQGQTSPIKPKRPFVESNV
notes: Tanc2, human, aa 1359-1990, in pGEX-6P-1; also called C-terminal region of purified Tanc2; pGST-Tanc2-C; source: E. coli BL-21 (DE3), purified on glutathione sepharose 4B beads

target: mTOR recombinant protein (Origene #TP320457) (UniProt P42345 1-2549); test: pull-down; GST-Tanc2 proteins (full-length, N, C) immobilised on glutathione agarose beads, incubated with mTOR recombinant protein (0.5 µg) or Deptor protein in RIPA buffer for 2 h at 4 °C; washed three times; Coomassie staining or immunoblot; conditions: both partners purified

Binding result, binds:
B1, B2, B3
